Test results published in patent US5985608.

Molecular target: endogenous β-actin of the bovine neutrophil plasma membrane (bovine) (UniProt P60712)
Assay: control of the co-immunoprecipitation, protein A-agarose beads

- β-actin co-precipitated relative to the anti-pepA immunoprecipitate: < 5%
Substance: nonspecific rabbit IgG (polyclonal serum or antibody)
